Measured values from the supplement of paper PMC10567573.

B1: RSPH3 (parent)
chain: FIPAKTGKDVATQILEGELFDFDL

Variants of: B1
Assay: protein stability index of a GFP-peptide fusion (GPS, HEK-293T) (PSI 1-6); higher = more stable
Details: c terminus: a fixed tail appended
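Also: lentivirally expressed fusions sorted by FACS into six bins by GFP to DsRed ratio, PSI derived from sequencing read proportions per bin multiplied by bin number.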

Protein stability index, by site and new letter:
A4: L 2.09, S 1.64, W 1.6, P 1.55, V 2.28, M 2.74, C 2.08, D 2.25, N 2.35, T 1.96, K 1.9, H 1.62, F 2.33, G 2.48, E 2.51, I 1.62, Q 2.05, Y 1.54
G7: Q 1.97, K 2.03, E 2.08, I 1.96, F 1.45, W 2.83, S 2.08, R 1.82, D 2.46, N 1.85, C 1.79, A 1.83, Y 1.88, M 1.43, H 2.08, T 1.77, P 2.82, L 2.12, V 2.2
P3: Q 2.5, H 1.85, Y 1.52, E 2.83, L 2.71, G 2.5, F 2.2, S 2.56, T 2.24, W 2.43, N 2.24, V 1.59, R 1.94, I 1.97, K 2.4, M 1.6
G17: A 2.14, T 2.11, K 1.93, V 2.75, S 1.56, Q 2.26, F 2.72, C 2.54, M 1.71, P 1.37, Y 2.06, D 1.75, N 1.32, W 1.95, H 2.34, R 2.15, E 3, I 2.31, L 1.48
D9: Q 1.68, V 2.29, C 2.43, Y 2.06, K 1.65, S 1.82, W 3.31, P 1.78, G 2.23, N 3.27, A 1.25, T 1.77, I 1.42, F 2.59, H 2.03, E 1.81, R 2.06, L 2.77
E16: G 2.34, V 2.04, K 2.11, L 1.73, T 1.63, W 2.07, M 3.38, S 2.76, F 3.82, D 1.86, H 1.32, Q 1.7, N 2.34, C 2.32, A 1.46, P 1.8, I 2.24, R 2.46, Y 2.01
E18: T 2.62, Q 2.06, A 1.74, Y 1.59, R 2.46, V 2.46, F 3.44, L 2.42, C 2.17, H 2, D 2.04, K 2.2, M 2.73, W 1.95, S 2, I 2.6, P 1.87, N 2.38, G 1.71
T6: Q 1.64, N 1.91, Y 1.64, F 2.08, H 1.82, P 1.42, G 2.12, R 1.71, D 2.46, C 1.29, S 1.71, I 2.53, L 1.87, V 1.6, M 1.59, A 2, W 1.9, K 2.22, E 2.43
F20: A 2.47, L 2.25, P 2.37, H 1.59, D 2.92, K 2.08, W 2.26, R 1.86, M 1.88, E 2.6, C 2.16, I 1.72, N 2.76, V 2.71, Q 2.44, G 1.84, S 2.52, T 2.13
K8: F 1.32, I 1.74, Q 2.1, Y 2.27, G 1.71, P 2.15, M 1.63, R 2.37, L 2.44, D 2.22, T 1.6, C 2.58, H 1.9, E 2.43, S 1.93, A 2.13, N 2.06, V 2.52
Q13: A 1.43, S 2.32, F 2.07, D 2.08, T 1.99, N 1.97, Y 2.09, H 2.62, R 1.58, I 2.43, M 1.67, E 1.65, V 2.55, G 2.65, P 1.95, K 1.78, L 2.38, C 2.9, W 1.95
I14: E 2.09, L 2.27, M 2.75, G 1.49, P 2.21, T 2.79, R 1.55, F 1.74, D 2.94, S 1.41, H 2.05, Q 1.79, Y 2.47, C 1.99, V 2.2, W 2.71, K 1.72, N 1.57, A 2.07
L15: W 2.75, I 1.87, D 2.58, P 2.02, A 1.74, Y 1.76, M 2.03, C 1.85, S 2.03, V 1.94, G 1.89, K 2.07, E 2.79, F 2.18, T 1.66, H 2.12, N 2, Q 1.96, R 2.75
K5: I 1.63, V 1.72, H 1.92, E 2.95, M 1.87, N 2.71, F 2.46, R 1.75, L 1.85, G 1.97, Y 1.88, A 1.77, W 1.57, C 1.87, S 2.01, D 2.66, T 2.15, P 2.22, Q 2.21
T12: R 2.55, V 2.98, E 2.04, A 2.18, I 1.85, K 1.49, P 1.8, G 1.7, L 2.18, N 1.89, D 1.56, Q 1.92, S 1.82, F 2.73, Y 1.92, M 2.18, H 1.43, C 2.02, W 3.27
A11: D 2.48, K 2.24, T 1.91, I 2, H 1.8, Q 1.73, M 1.53, V 1.94, F 2.13, P 1.78, G 2.04, E 2.35, S 1.87, Y 4.25, N 1.68, R 2.2, C 2, L 1.27
L19: A 2.2, P 1.98, I 2.05, C 1.83, Q 1.66, V 1.74, Y 2.02, N 1.93, F 1.7, W 1.96, G 2.31, T 2.28, S 1.98, M 1.83, D 2.59, R 1.6, E 2.2, H 2.01, K 2.21
V10: F 1.9, E 2.52, S 1.29, A 1.84, Y 1.99, D 2.28, K 1.54, T 2.08, H 1.82, G 1.98, C 1.67, N 2.12, P 1.61, M 1.58, W 2.75, Q 1.82, R 1.58, I 2.95, L 2.63
